Experimental data published in US8034579B2, “Proteins with enhanced functionality and methods of making novel proteins using circular permutation” (Emory University, priority 2005, dated 2011).

Experiments:
[1] = substrate: CCCC(=O)Oc1ccc([N+](=O)[O-])cc1; assay: Initial rate of hydrolysis of p-nitrophenol butyrate (pNB), wild type; format: biochemical, Candida antarctica; settings: other: wild type, 50 mM K-phosphate pH 7.5, room temperature
Source text: (§1) Kinetic analysis of protein variants: To examine the impact of circular permutation on catalysis eleven functional CALB variants with termini in or near the active site were selected for detailed kinetic characterization. The locations of the termini in these variants are shown on the structure of CALB in FIG. 6; the numbers correspond to the amino acid residue of the new terminus. Following overexpression in P. pastoris, the selected circularly permuted proteins were purified to homogeneity. The catalytic performance of these variants was determined in activity assays with two standard lipase substrates, measuring the initial rates of hydrolysis of the chromogenic substrate p-nitrophenol butyrate (pNB) and the fluorogenic substrate 6,8-difluoro-4-methylumbelliferyl (DiFMU) octanoate.
(§2) The overexpression and purification of wild type CALB was performed as described in Rotticci-Mulder, J. C. et al., Protein Expr Purif 2001, 21, (3), 386-92, which is hereby incorporated by reference. The same protocol was adopted for the isolation of circular permutation variants of CALB. Briefly, pPIC9-ca/B was linearized by SacI digestion and electroporated into P. pastoris cells (GS115). […]
(§3) Lipase activity was determined by measuring the initial hydrolysis rate of p-NB and DiFMU octanoate at room temperature on a Synergy-HT microtiterplate reader (Bio-Tek Instruments, Winooski, Vt.). Stock solutions of p-NB (200 mM) and DiFMU octanoate (3 mM) were prepared in DMSO. p-NB hydrolysis over a substrate range of 0-1.6 mM was measured in 50 mM K-phosphate buffer (pH 7.5) at 400 nm ( ? for p-NB=13260 M^1 cm^−1) as described in Bender, M. L. et al., J Am Chem Soc 1968, 90, (1), 201-7, which is hereby incorporated by reference. The rate of DiFMU octanoate hydrolysis was determined by measuring the DiFMU formation over a substrate range of 0-12 μM in 50 mM K-phosphate buffer (pH 7.0) at an excitation/emission wavelength 360/460 nm. Kinetic constants were calculated by fitting the initial rates to the Michaelis-Menten equation using the Origin® software (version 7; OriginLab Corporation).

[2] = substrate: CCCCCCCC(=O)Oc1c(F)cc2c(C)cc(=O)oc2c1F; assay: Initial rate of hydrolysis of DiFMU octanoate, wild type; format: biochemical, Candida antarctica; settings: other: wild type, 50 mM K-phosphate pH 7.0, room temperature
Source text: as §1, §2, §3

B1: Candida antarctica lipase B (CALB), wild type, SEQ ID NO: 2, L1/P317 (Moesziomyces antarcticus) (protein)
chain: LPSGSDPAFSQPKSVLDAGLTCQGASPSSVSKPILLVPGTGTTGPQSFDSNWIPLSAQLGYTPCWISPPPFMLNDTQVNTEYMVNAITTLYAGSGNNKLPVLTWSQGGLVAQWGLTFFPSIRSKVDRLMAFAPDYKGTVLAGPLDALAVSAPSVWQQTTGSALTTALRNAGGLTQIVPTTNLYSATDEIVQPQVSNSPLDSSYLFNGKNVQAQAVCGPLFVIDHAGSLTSQFSYVVGRSALRSTTGQARSADYGITDCNPLPANDLTPEQKVAAAALLAPAAAAIVAGPKQNCEPDLMPYARPFAVGKRTCSGIVTP
Question: For B1, which Km [1] is on record?
Answer: 410 ± 40 µM

Question: What about the kcat [1] of the same protein?
Answer: 5.08 ± 0.167 s⁻¹

Question: And the kcat/Km [1]?
Answer: 12300 M⁻¹ s⁻¹

Question: And the Km [2]?
Answer: 2.6 ± 0.3 µM

Question: And the kcat [2]?
Answer: 0.033 ± 0.0017 s⁻¹

Question: And the kcat/Km [2]?
Answer: 13000 M⁻¹ s⁻¹
